According to article PMC3088361:

Each substance was assayed against soluble CD4 (UniProt P01730) (assay: SPR).

Going from “HIV-1 YU-2 gp120 K282A (natural protein)” to “HIV-1 YU-2 gp120 I420R (natural protein)”, the Kd rises from 0.0119 µM to 0.0248 µM (2.1-fold). The first binds more tightly here.

Going from “HIV-1 YU-2 gp120 N280A (natural protein)” to “HIV-1 YU-2 gp120 R456A (natural protein)”, the Kd rises from 0.0068 µM to 0.0113 µM (1.7-fold). The first binds more tightly here.

First: HIV-1 YU-2 gp120 I423M/N425K/G431E (natural protein)
Second: HIV-1 YU-2 gp120 S375W/T257S (natural protein)
The Kd of the first is 87-fold higher: 0.0781 µM for the first, 0.0009 µM for the second.

Going from “HIV-1 YU-2 gp120 T283A (natural protein)” to “HIV-1 YU-2 gp120 N279A (natural protein)”, the Kd rises from 0.0167 µM to 0.0346 µM (2.1-fold).

Compared with “HIV-1 YU-2 gp120 P124A (natural protein)”, “HIV-1 YU-2 gp120 A281G (natural protein)” is 2.1-fold lower in Kd: 0.0262 µM for the first, 0.0123 µM for the second.

With “HIV-1 YU-2 gp120 T278A (natural protein)” the Kd was 0.0073 µM.
